Several values for one entry are separate records, joined by “and”; a condition that tells them apart may be missing. Equal values may be shown once.

The values that follow come from paper PMC9605926, “Safety of [^177Lu]Lu-NeoB treatment: a preclinical study characterizing absorbed dose and acute, early, and late organ toxicity” (European Journal of Nuclear Medicine and Molecular Imaging, 2022).

One data set has as its system mouse kidneys. In words: Binary logistic regression of absorbed kidney dose versus renal histopathology. It counts as in vivo. The following applies: 19 weeks, males and females combined, n = 30; 95% CI: 6.66–11.18 Gy. The protocol: Statistical analysis was performed using GraphPad PRISM software (version 5). Significance levels were set at 5%. A simple binary logistic regression analysis was performed to determine a dose–effect relation between the absorbed dose and the histopathological findings in the kidneys using the log-likelihood ratio test as a significance indicator. The weight gain over time of control group 2 and treatment groups 1, 2, and 3 was compared to control group 1 by performing a two-way multiple comparison analysis of variance (ANOVA) with a Bonferroni correction. Significant outliers in the blood values set were detected with the Grubbs’ test and excluded from the data set. At a given time point, the measurements of all study groups were compared by performing a one-way ANOVA and in case of significance a Tukey test to correct for multiple comparisons. All data are represented as mean ± standard deviation (SD).
Binary logistic regression analysis was performed to determine a dose–effect relationship for the incidence of renal toxicity (Fig. 5).

A further data set relates to pancreas. Particulars: 100 days after once weekly for 3 consecutive weeks 37 MBq/400 pmol; cited from earlier work. The text has this:
As mentioned above, the GRPR-expressing pancreas is often named as a potential dose-limiting organ for GRPR-targeting radionuclide therapy. Pancreatitis can be diagnosed by an increase in serum lipase and amylase levels, neither of which were consistently found in this study. Furthermore, no histopathological signs of continuous or severe pancreatic toxicity was observed.

Another data set relates to healthy Balb/c mice. In words: Toxicity study, clinical chemistry. It counts as in vivo, mouse. Particulars: 5, 11, 19, 30, 43 wk, mean±SD. On the procedure: Five different experimental groups (10 male and 10 female healthy animals per group; n = 100) were included in the radiotoxicity study and treated as follows: control group 1: 3 × vehicle (PBS + kolliphor HS 15 (1 mg/mL)); control group 2: 3 × 1200 pmol [^175Lu]Lu-NeoB; treatment group 1: 3 × 40 MBq/400 pmol [^177Lu]Lu-NeoB; treatment group 2: 3 × 80 MBq/800 pmol [^177Lu]Lu-NeoB; and treatment group 3: 3 × 120 MBq/1200 pmol [^177Lu]Lu-NeoB.
Animals received 3 injections with an interval of 7 days between each injection.
In addition, the following clinical chemistry parameters were measured: sodium, potassium chloride, calcium, glucose, creatinine, urea, alanine aminotransferase (ALT), aspartate aminotransferase (AST), alkaline phosphatase (ALP), amylase, lipase, and cholesterol, using the Roche/Hitachi cobas c systems according to the standard protocol. To reach the volume necessary for measuring the clinical chemistry parameters, the blood plasma was diluted 3–5 times with demineralized water.

As for `CC(C)CC(CC(C)C)NC(=O)[C@H](Cc1cnc[nH]1)NC(=O)CNC(=O)[C@@H](NC(=O)[C@H](C)NC(=O)[C@H](Cc1c[nH]c2ccccc12)NC(=O)[C@H](CCC(N)=O)NC(=O)[C@@H](Cc1ccccc1)NC(=O)COCC(=O)Nc1ccc(CNC(=O)CN2CCN(CC(=O)O)CCN(CC(=O)O)CCN(CC(=O)O)CC2)cc1)C(C)C` [[^177Lu]Lu-NeoB, metal not drawn], the “ED50 of absorbed kidney dose for hydronephrosis” value in the data set on mouse kidneys stood at 8.65 Gy. Moreover, the Pancreatic alterations entry in the data set on pancreas is on record as “no pancreatic alterations”. For the same compound, the “Alk. Phosphatase” value was 104.70 ± 11.61 U/L and 85.71 ± 8.98 U/L and 68.75 ± 4.76 U/L and 75.00 ± 0.00 U/L and 86.67 ± 16.07 U/L in the data set with healthy Balb/c mice (female, treatment group 1); 88.75 ± 7.50 U/L and 96.60 ± 11.73 U/L and 92.57 ± 8.90 U/L and 75.00 ± 8.16 U/L and 87.50 ± 8.66 U/L in the data set on healthy Balb/c mice (female, treatment group 2); 96.00 ± 15.81 U/L and 93.00 ± 4.65 U/L and 81.43 ± 10.69 U/L and 90.00 ± 9.13 U/L and 110.00 ± 26.46 U/L in the data set on healthy Balb/c mice (female, treatment group 3); 114.00 ± 8.28 U/L and 98.57 ± 4.04 U/L and 70.00 ± 0.00 U/L and 85.00 ± 10.00 U/L and 68.33 ± 20.82 U/L with healthy Balb/c mice (male, treatment group 1); 75.00 ± 15.81 U/L and 112.40 ± 16.22 U/L and 96.86 ± 9.44 U/L and 85.00 ± 0.00 U/L and 80.00 ± 0.00 U/L in the data set with healthy Balb/c mice (male, treatment group 2); 103.20 ± 13.73 U/L and 99.43 ± 5.59 U/L and 83.75 ± 7.50 U/L and 87.50 ± 8.66 U/L and 80.00 ± 17.80 U/L with healthy Balb/c mice (male, treatment group 3). For the same compound, the Urea is 6.84 ± 1.27 mmol/L and 7.24 ± 1.10 mmol/L and 7.29 ± 1.04 mmol/L and 7.00 ± 1.78 mmol/L and 6.00 ± 0.00 mmol/L in the data set on healthy Balb/c mice (female, treatment group 1); 8.13 ± 2.95 mmol/L and 9.48 ± 0.83 mmol/L and 7.41 ± 0.62 mmol/L and 6.64 ± 1.07 mmol/L and 7.50 ± 0.71 mmol/L in the data set with healthy Balb/c mice (female, treatment group 2); 8.94 ± 1.32 mmol/L and 7.97 ± 1.26 mmol/L and 8.50 ± 1.80 mmol/L and 9.25 ± 2.40 mmol/L and 8.63 ± 2.56 mmol/L with healthy Balb/c mice (female, treatment group 3); 7.44 ± 0.85 mmol/L and 6.60 ± 0.60 mmol/L and 7.00 ± 0.00 mmol/L and 7.50 ± 0.00 mmol/L in the data set with healthy Balb/c mice (male, treatment group 1); 7.33 ± 1.26 mmol/L and 7.46 ± 1.14 mmol/L and 7.24 ± 1.41 mmol/L and 7.13 ± 0.85 mmol/L and 8.00 ± 1.35 mmol/L in the data set on healthy Balb/c mice (male, treatment group 2); 7.59 ± 1.51 mmol/L and 6.77 ± 0.71 mmol/L and 7.25 ± 0.87 mmol/L and 6.50 ± 0.00 mmol/L and 6.75 ± 1.04 mmol/L with healthy Balb/c mice (male, treatment group 3).
